Experimental data as given in paper PMC11879619.
Where no end group is shown, it is not given here.

target: He-PDFR-A, long splice variant of the pigment-dispersing factor receptor of Hypsibius exemplaris (Hypsibius exemplaris)

Row | Binder | EC50 of the cAMP response (BRET ratio change of the Epac-L sensor) of HEK293T cells transfected with He-pdfr-A, synthetic peptide at 10^-11 to 10^-5 M [nM]
1 | NAEVLNSLIGLPRLLKDK-NH2 [He-PDF-1, pigment-dispersing factor 1 of Hypsibius exemplaris (synthetic mature peptide)] | 56
2 | NSEILNTLIGLPNKLKQR-NH2 [He-PDF-3, pigment-dispersing factor 3 of Hypsibius exemplaris (synthetic mature peptide)] | 18
3 | NSEILNTIIGLPNKLRQR-NH2 [He-PDF-2, pigment-dispersing factor 2 of Hypsibius exemplaris (synthetic mature peptide)] | 34

target: He-PDFR-B, short splice variant of the pigment-dispersing factor receptor of Hypsibius exemplaris (Hypsibius exemplaris)

Row | Binder | EC50 of the cAMP response (BRET ratio change of the Epac-L sensor) of HEK293T cells transfected with He-pdfr-B, synthetic peptide at 10^-11 to 10^-5 M [nM]
4 | NAEVLNSLIGLPRLLKDK-NH2 [He-PDF-1, pigment-dispersing factor 1 of Hypsibius exemplaris (synthetic mature peptide)] | 21
5 | NSEILNTLIGLPNKLKQR-NH2 [He-PDF-3, pigment-dispersing factor 3 of Hypsibius exemplaris (synthetic mature peptide)] | 1.6
6 | NSEILNTIIGLPNKLRQR-NH2 [He-PDF-2, pigment-dispersing factor 2 of Hypsibius exemplaris (synthetic mature peptide)] | 11
